Experiments:
[1] = target: GBP4-Tub-tag (GFP-specific nanobody GBP4 with the Tub-tag sequence fused to its C-terminus); assay: cell-based or functional assay
[2] = system: T1, 5,6-carboxyfluorescein labeled Tub-tag peptide (CF-Tub-tag, peptide 13)
T1 sequence: VDSVEGEGEEEGEE

Sequence of GBP4-Tub-tag (GFP-specific nanobody GBP4 with the Tub-tag sequence fused to its C-terminus) (heavy, as listed by the source): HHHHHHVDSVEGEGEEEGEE

Row | C-terminally modified GBP4 (3-N3-L-tyrosine incorporation followed by SPAAC to DBCO-biotin), 1:10 TTL/GBP4, 37 C, one hour [1] | conversion of GBP4 (3-N3-L-tyrosine incorporation followed by SPAAC to DBCO-biotin), 1:5 TTL/GBP4, 37 C, one hour [1] | conversion of GBP4, 1:5 TTL/GBP4, three hours [1] | conversion of GBP4, 1:10 TTL/GBP4, three hours [1] | Substance | conjugate yield after 120 min at 37 C, 3-N3-L-tyrosine (3), TTL:peptide 1:200, isocratic HPLC [2] | conjugate yield after 120 min at 37 C, 3-formyl-L-tyrosine (1), TTL:peptide 1:200, isocratic HPLC [2]
1 | 71% | 82% | 99% | 88% | tubulin tyrosine ligase (TTL, Canis lupus) (enzyme) |  | 
2 |  |  |  |  | tubulin tyrosine ligase (TTL, Canis lupus) | After 120 min of incubation at 37 °C the conjugate yield with 1 and 3 was 63% and 80%, respectively | After 120 min of incubation at 37 °C the conjugate yield with 1 and 3 was 63% and 80%, respectively

Reference: patent publication US20170349625A1
